The target of this test is CXCR4 on THP-1 cells (human (endogenous in THP-1)) (UniProt P61073).
Sequence of UniProt P61073 (P61073 whole entry): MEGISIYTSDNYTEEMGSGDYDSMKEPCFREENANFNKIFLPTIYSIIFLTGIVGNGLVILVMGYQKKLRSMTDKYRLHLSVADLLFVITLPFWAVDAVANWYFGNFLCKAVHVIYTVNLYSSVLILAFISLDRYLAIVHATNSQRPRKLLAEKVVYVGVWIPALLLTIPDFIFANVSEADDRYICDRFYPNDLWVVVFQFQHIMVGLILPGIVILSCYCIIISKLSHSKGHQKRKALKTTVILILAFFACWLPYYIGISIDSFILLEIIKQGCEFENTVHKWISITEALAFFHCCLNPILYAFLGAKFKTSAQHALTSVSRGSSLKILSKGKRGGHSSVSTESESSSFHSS

The substance “Recombinant human stromal cell-derived factor-1 (SDF-1/CXCL12), intact (from UniProt P48061 22-93) (ligand)” returned a CXCR4 internalization (loss of surface CXCR4 by flow cytometry) in THP-1 cells, 100 ng/mL SDF-1 for 15 minutes; uncut SDF-1, and SDF-1 pre-incubated with COAM 100x before protease at similar levels (% of receptor internalization) of 25.

Source of the values: article PMC11327020.
